Data set [1] concerns the target T1, CsSDC (Camellia sinensis, UniProt A0A4S4DBB3).
T1 construct: gene SerDC; about 75 kDa on SDS-PAGE
In words: decarboxylase activity with and without […] PLP, UPLC. It counts as biochemical. The conditions noted are these: 20 mM serine, 40 °C, pH 7.0.

Substrate in data set [2]: C[C@H](N)C(=O)O
As to the kind of experiment: purified protein. As to conditions: 45 °C, pH 8.0, 100 mM potassium phosphate, 0.1 mM PLP, 5 mM DTT, 1 mM K2EDTA, 10% glycerol, 1-100 mM substrate.

T1 sequence (A0A4S4DBB3 entry or part of it): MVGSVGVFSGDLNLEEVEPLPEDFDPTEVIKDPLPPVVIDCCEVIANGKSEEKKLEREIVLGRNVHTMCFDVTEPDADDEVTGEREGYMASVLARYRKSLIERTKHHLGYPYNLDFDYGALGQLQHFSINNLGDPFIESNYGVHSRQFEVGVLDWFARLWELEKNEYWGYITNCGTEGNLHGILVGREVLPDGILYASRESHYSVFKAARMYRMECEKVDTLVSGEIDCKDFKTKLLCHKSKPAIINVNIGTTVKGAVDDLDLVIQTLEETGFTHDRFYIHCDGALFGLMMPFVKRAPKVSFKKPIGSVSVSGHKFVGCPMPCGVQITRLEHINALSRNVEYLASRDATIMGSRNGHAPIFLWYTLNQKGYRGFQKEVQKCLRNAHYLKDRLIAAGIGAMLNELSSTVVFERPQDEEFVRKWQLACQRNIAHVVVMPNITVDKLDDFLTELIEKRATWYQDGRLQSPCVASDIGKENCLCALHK

In the case of `Cc1ncc(COP(=O)(O)O)c(C=O)c1O` [pyridoxal-5′-phosphate], the “decarboxylase activity with and without 0.1 mM PLP, UPLC” value in data set [1] is “activities of CsAlaDC and CsSDC are significantly dependent on the presence of PLP”.

B1: CsAlaDC (Camellia sinensis var. sinensis) (protein)
chain: MEGTVSVLSNVSKVELLSKCFDLITIPVEPLPPVVASNGVAGGETKNMKERDIVLGKNVHTTSLTITEPDVDDDSTSDMEAFMAGVLVRYRKTLIEKTKYHLGYPFNLDLDYGPLAELQHFAINNLGDPFIESNYGVHSRQFEVGVLDWFARLWEIEQKEYWGYITNGGTEGNLHGILIGREVFPDGIFYTSRESHYSIFKAARMYRMECVKVGTLINGEIDCADFKAKLLSNKDKPAIINLNIGTTVKGAVDDIDLVIQTLEECGFSHDRFYIHCDGALFGFMMPFLNRGPKITFKKPIGSVSVSGHKFMGCPTPCGVQITRLEHINALSRNVEYLASRDATITGSRNGHSPIILWYALNRKGFKGFQKEVQKCLRNAHYLKDRLREAGISAMLNELSSTVVFERPLDEEFVRRWQLACEGNMAHVIVMPNVTIEKLDEFLNELVQKRANWYNDGKAGPPCLAPDIGSENCDCDLHK
A word on the Km: it is the substrate concentration at which the rate is half of its maximum. In general, Vmax refers to the top rate of the reaction or transport when substrate is in excess. Regarding B1, in data set [2], the Km is given as 33.25 mM and the Vmax is 3470 µmol/min/mg.

These data come from article PMC7923638 (BMC Biotechnology, 2021).
